# Measured values reported in publication PMC7116854 (Nature, 2020).
# Read-outs that look alike come from different tables or passages of the source.
# How the values were obtained:
# Assay in all cases: SPR
# [1] = molecular target: T1, LILRB1 D1D4 (complete extracellular domain of LILRB1) (human, UniProt Q8NHL6 24-417)
# [2] = molecular target: T1, LILRB1 D1D4 (complete extracellular …); remark: listed apart in the source
# LILRB1 D1D2 [3] = molecular target: T2, LILRB1 D1D2 (human, UniProt Q8NHL6 24-221)
# T2 sequence (Q8NHL6 24-221): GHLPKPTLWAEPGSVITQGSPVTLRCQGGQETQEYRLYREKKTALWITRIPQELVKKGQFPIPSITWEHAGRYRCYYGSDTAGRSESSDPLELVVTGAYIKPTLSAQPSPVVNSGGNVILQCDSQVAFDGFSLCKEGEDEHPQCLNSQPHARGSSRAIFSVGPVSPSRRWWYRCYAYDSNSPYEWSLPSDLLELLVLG
# LILRB1 D1D2 [4] = molecular target: T2, LILRB1 D1D2; remark: listed apart in the source
# T1 sequence (Q8NHL6 24-417): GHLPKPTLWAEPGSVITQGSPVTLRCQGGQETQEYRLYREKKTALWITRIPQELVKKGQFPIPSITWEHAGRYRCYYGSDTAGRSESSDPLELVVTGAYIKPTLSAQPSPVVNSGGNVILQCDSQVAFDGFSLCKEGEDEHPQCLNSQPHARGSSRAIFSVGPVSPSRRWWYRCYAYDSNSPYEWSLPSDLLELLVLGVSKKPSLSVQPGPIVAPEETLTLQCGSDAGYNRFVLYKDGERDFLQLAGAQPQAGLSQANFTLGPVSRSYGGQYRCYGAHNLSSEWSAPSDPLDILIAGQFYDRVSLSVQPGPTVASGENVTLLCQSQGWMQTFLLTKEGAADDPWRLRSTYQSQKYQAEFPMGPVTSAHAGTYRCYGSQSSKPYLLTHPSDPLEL
Binder,Kd [1] [nM],Kd [2] [nM],koff [2] [s⁻¹],kon [2] [M⁻¹ s⁻¹],Kd (LILRB1 D1D2 [3]) [nM],Kd (LILRB1 D1D2 [4]) [nM],koff (LILRB1 D1D2 [4]) [s⁻¹],kon (LILRB1 D1D2 [4]) [M⁻¹ s⁻¹]
RIFIN PF3D7_0100400 variable region (165-329) (domain or fragment) VWKTTEIAAAMELAKQAGAAAGLKAGHLAGTNAVIEQLRTLGIYFVGDKLLETIIDVTNYMNVSFIYDKVYSHYTTSCTPSLVNDQLVGTFNTSDPFCNLVHSNLQGSFYRSSAQTIIYEKVEEAVAGAEQAATTKTAVMTPIYTTEFTAKNIAEVEAATTSYYT,4400 ± 3200,14500,0.0592,4100,,,,
RIFIN PF3D7_1254800 variable region (residues 165-274) (domain or fragment) NYETINAFIAKTIEELEGIPGITKLFGAKISQFVTPAVFRKPMSLVETILSEKKKLCLCAANKNELLCRGMNPNVPETLPKKIEVAVNEVLSSVNDTWATATTPTTFFTN,570 ± 130,1130,0.297,263000,,,,
RIFIN PF3D7_1254800 variable region C223S (165-261) (domain or fragment) NYETINAFIAKTIEELEGIPGITKLFGAKISQFVTPAVFRKPMSLVETILSEKKKLCLSAANKNELLCRGMNPNVPETLPKKIEVAVNEVLSSVNDT,700 ± 5,1040,0.299,288000,1100 ± 50,1330,0.579,437000
